This assay concerns the target T1, acetylated peptide at residue K280 (276QIIN-K-Ac-KLDLSNVQSC) (human).
T1 construct: Coated at 1 ug/ml on 96-well plates; also called acetylated tau peptide
T1 peptide: QIINK(Ac)KLDLSNVQSC
The assay is described as follows: peptide ELISA, peptide coated at 1 ug/ml, hybridoma supernatant diluted 1:10 to 1:2,500. How it is done: FIG. 13 includes an ELISA assay showing two K280 clones, 19B6 and 17G8, preferentially detect acetylated vs, non-acetylated tau peptides. Standard peptide ELISAs were performed with 1 μg/ml acetylated peptides at residue K280 (276QIIN-K-Ac-[…] (SEQ ID NO:17)) vs, non-acetylated peptides (276[…] (SEQ ID NO: 16)) and used to coat 96-well plates followed by washing with coating buffer (Phosphate Buffered Saline, pH 7.4) and incubated with serial dilutions of hybridoma supernatants (diluted from 1:10 to 1:2,500). Monoclonal antibodies were […] Horseradish peroxidase (HRP)-labeled secondary antibodies and colorimetric ELISAs were performed using a BMG/BioTek® multiplate reader at a standard absorbance setting of 450 nm with auto-mixing and blanking.

Experimental findings from patent publication US20240376188A1 (UNIVERSITY OF NORTH CAROLINA AT CHAPEL HILL, published 2024) are described below.

Ends that are not written are not given here.

B1: 19B6 (antibody, V domains shown)
VH: EVQLQQSGAEFVRPGASVKLSCTVSGLNIEDDYIQWLKQRPEQGLEWIGWIDPENGDPKYASKFQGKATLTADTSSKIAYLHLSSLTSEDTAVYYCATRGLWGQGTTLTVSS
VL: QIVLTQSPAIMSASLGERVTMTCTASSSVSSSYFHWYQQKPGSSPKLWIYSTSNLASGVPVRFSGSGSGTSYSLTISSMEAEDAATYYCHQYHRSPLTFGAGTKLELK
notes: Used as hybridoma supernatant in the peptide ELISA; also called Ac-K280 clone 19B6
Take B1: the binding result is given as “binds”.

B2: 17G8 (antibody, V domains shown)
VH: B1 VH
VL: B1 VL
notes: Used as hybridoma supernatant in the peptide ELISA; also called Ac-K280 clone 17G8
For B2, the binding result is listed as “binds”.
